# In publication PMC2756588:
# T1: Lsb4, P32793
# T1 sequence (P32793 402-468, looked up): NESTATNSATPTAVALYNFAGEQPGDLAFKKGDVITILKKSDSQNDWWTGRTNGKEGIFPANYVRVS
# T2: Boi2, P39969
# T2 sequence (P39969 32-116, looked up): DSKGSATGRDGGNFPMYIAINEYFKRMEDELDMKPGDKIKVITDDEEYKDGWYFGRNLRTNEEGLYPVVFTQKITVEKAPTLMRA
# T3: Abp1, P15891
# T3 sequence (P15891 535-592, looked up): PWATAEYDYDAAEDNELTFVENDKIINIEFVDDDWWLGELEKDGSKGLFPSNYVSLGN
# T4: Hof1, Q05080
# T4 sequence (Q05080 590-669, looked up): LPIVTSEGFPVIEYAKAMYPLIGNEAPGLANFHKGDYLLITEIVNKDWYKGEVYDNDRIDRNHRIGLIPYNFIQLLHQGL
# T5: Lsb1, P53281
# T5 sequence (P53281 45-122, looked up): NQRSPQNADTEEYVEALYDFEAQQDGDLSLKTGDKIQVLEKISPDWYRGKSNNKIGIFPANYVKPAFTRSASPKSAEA
# T6: Bbc1, P47068
# T6 sequence (P47068 1-78, looked up): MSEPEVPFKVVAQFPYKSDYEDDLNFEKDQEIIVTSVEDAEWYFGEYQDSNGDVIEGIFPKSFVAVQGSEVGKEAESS
# T7: Sla1-2, P32790
# T7 sequence (P32790 60-140, looked up): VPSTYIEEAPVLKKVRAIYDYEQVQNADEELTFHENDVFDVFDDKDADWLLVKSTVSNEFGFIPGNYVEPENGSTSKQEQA
# T8: Lsb3, P43603
# T8 sequence (P43603 385-451, looked up): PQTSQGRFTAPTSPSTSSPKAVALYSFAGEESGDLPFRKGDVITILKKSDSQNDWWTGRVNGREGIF
# T9: Pex13, P80667
# T9 sequence (P80667 295-386, looked up): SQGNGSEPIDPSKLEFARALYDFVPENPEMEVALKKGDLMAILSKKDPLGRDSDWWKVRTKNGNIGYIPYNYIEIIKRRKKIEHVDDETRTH
# T10: Cdc25, P04821
# T10 sequence (P04821 50-136, looked up): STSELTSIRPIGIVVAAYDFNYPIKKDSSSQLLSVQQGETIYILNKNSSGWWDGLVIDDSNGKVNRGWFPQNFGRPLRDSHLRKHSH
# T11: Fus1, P11710
# T11 sequence (P11710 432-512, looked up): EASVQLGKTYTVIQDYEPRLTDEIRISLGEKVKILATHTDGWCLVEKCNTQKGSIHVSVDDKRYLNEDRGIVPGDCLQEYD
# T12: Hse1, P38753
# T12 sequence (P38753 208-285, looked up): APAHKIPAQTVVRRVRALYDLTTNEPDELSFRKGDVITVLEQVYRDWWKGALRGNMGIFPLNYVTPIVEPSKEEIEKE
# T13: Nbp2, Q12163
# T13 sequence (Q12163 103-180, looked up): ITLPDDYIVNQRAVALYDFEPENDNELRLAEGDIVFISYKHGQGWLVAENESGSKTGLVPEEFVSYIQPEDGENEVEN
# T14: Pin3, Q06449
# T14 sequence (Q06449 53-122, looked up): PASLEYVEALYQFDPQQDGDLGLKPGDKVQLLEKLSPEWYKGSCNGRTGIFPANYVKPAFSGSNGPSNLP
# T15: Myo5, Q04439
# T15 sequence (Q04439 1072-1160, looked up): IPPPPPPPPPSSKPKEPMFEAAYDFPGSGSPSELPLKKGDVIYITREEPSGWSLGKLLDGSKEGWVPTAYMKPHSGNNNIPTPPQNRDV
# T16: Bud14, P27637
# T16 sequence (P27637 247-328, looked up): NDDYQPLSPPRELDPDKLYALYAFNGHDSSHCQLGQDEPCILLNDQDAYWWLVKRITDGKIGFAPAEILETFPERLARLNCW
# T17: Boi1, P38041
# T17 sequence (P38041 1-86, looked up): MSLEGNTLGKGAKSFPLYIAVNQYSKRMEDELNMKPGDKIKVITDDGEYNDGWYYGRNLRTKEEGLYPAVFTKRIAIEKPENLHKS
# T18: Sla1-3, P32790
# T18 sequence (P32790 344-424, looked up): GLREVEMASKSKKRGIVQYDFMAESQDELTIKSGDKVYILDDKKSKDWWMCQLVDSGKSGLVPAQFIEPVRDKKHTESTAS
# T19: Bzz1-1, P38822
# T19 sequence (P38822 478-572, looked up): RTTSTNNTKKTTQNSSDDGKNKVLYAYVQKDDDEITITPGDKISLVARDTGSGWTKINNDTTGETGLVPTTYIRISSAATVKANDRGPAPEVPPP
# T20: Bzz1-2, P38822
# T20 sequence (P38822 568-633, looked up): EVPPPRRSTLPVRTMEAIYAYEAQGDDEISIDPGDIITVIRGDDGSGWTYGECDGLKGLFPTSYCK
# T21: Cyk3, Q07533
# T21 sequence (Q07533 1-83, looked up): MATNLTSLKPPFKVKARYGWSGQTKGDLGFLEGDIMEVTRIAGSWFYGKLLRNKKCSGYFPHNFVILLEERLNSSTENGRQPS
# B1: unnamed (peptide)
# chain: KRRAPPPVPKKPSSR
# B2: unnamed (peptide)
# chain: NMLKKKPLKKPLKRF
# B3: unnamed (peptide)
# chain: LKHGWKPLRPIKLIS
# B4: unnamed (peptide)
# chain: PKRRAPPPVPKKPSS
# B5: unnamed (peptide)
# chain: RPKRRAPPPVPKKPS
# B6: unnamed (peptide)
# chain: RAPPPVPKKPSSRIA
# Biological target: T1, Lsb4, P32793
# Assay: SPOT array
# Details: median of control spots 397
row,SPOT intensity,Binder
1,150,B1
2,1,B2
3,4,B3
4,182,B4
5,129,B5
6,180,B6

# Biological target: T2, Boi2, P39969
# Assay: SPOT array
# Details: median of control spots 1161
row,SPOT intensity,Binder
1,1,B1
2,1,B2
3,0,B3
4,1,B4
5,1,B5
6,0,B6

# Biological target: T3, Abp1, P15891
# Assay: SPOT array
# Details: median of control spots 935
row,SPOT intensity,Binder
1,626,B1
2,303,B2
3,75,B3
4,648,B4
5,555,B5
6,673,B6

# Biological target: T4, Hof1, Q05080
# Assay: SPOT array
# Details: median of control spots 4086
row,SPOT intensity,Binder
1,6,B1
2,14,B2
3,0,B3
4,8,B4
5,2,B5
6,4,B6

# Biological target: Rvs167, P39743
# Sequence (P39743 419-482): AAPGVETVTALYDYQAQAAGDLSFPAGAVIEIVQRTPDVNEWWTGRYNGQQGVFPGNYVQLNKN
# Assay: SPOT array
# Details: median of control spots 2707
row,SPOT intensity,Binder
1,165,B1
2,0,B2
3,0,B3
4,44,B4
5,99,B5
6,45,B6

# Biological target: T5, Lsb1, P53281
# Assay: SPOT array
# Details: median of control spots 388
row,SPOT intensity,Binder
1,1850,B1
2,0,B2
3,0,B3
4,1740,B4
5,1450,B5
6,1600,B6

# Biological target: T6, Bbc1, P47068
# Assay: SPOT array
# Details: median of control spots 796
row,SPOT intensity,Binder
1,233,B1
2,160,B2
3,14,B3
4,354,B4
5,487,B5
6,116,B6

# Biological target: T7, Sla1-2, P32790
# Assay: SPOT array
# Details: median of control spots 712
row,SPOT intensity,Binder
1,0,B1
2,2,B2
3,0,B3
4,0,B4
5,2,B5
6,0,B6

# Biological target: T8, Lsb3, P43603
# Assay: SPOT array
# Details: median of control spots 406
row,SPOT intensity,Binder
1,389,B1
2,2,B2
3,0,B3
4,346,B4
5,298,B5
6,415,B6

# Biological target: T9, Pex13, P80667
# Assay: SPOT array
# Details: median of control spots 1341
row,SPOT intensity,Binder
1,47,B1
2,18,B2
3,17,B3
4,41,B4
5,42,B5
6,395,B6

# Biological target: T10, Cdc25, P04821
# Assay: SPOT array
# Details: median of control spots 969
row,SPOT intensity,Binder
1,9,B1
2,68,B2
3,14,B3
4,3,B4
5,12,B5
6,2,B6

# Biological target: Bem1-2, P29366
# Sequence (P29366 139-227): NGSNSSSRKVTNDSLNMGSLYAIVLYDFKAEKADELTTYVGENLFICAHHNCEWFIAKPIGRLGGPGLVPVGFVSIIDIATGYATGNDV
# Assay: SPOT array
# Details: median of control spots 4347
row,SPOT intensity,Binder
1,961,B1
2,30,B2
3,7,B3
4,389,B4
5,497,B5
6,592,B6

# Biological target: T11, Fus1, P11710
# Assay: SPOT array
# Details: median of control spots 1200
row,SPOT intensity,Binder
1,10,B1
2,36,B2
3,4,B3
4,6,B4
5,6,B5
6,0,B6

# Biological target: T12, Hse1, P38753
# Assay: SPOT array
# Details: median of control spots 1727
row,SPOT intensity,Binder
1,412,B1
2,187,B2
3,147,B3
4,368,B4
5,310,B5
6,857,B6

# Biological target: T13, Nbp2, Q12163
# Assay: SPOT array
# Details: median of control spots 357
row,SPOT intensity,Binder
1,751,B1
2,66,B2
3,2,B3
4,650,B4
5,887,B5
6,1050,B6

# Biological target: Sho1, P40073
# Sequence (P40073 287-367): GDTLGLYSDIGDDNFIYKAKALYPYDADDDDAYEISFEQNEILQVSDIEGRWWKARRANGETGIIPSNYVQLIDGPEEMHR
# Assay: SPOT array
# Details: median of control spots 1148
row,SPOT intensity,Binder
1,370,B1
2,228,B2
3,55,B3
4,399,B4
5,487,B5
6,509,B6

# Biological target: T14, Pin3, Q06449
# Assay: SPOT array
# Details: median of control spots 2171
row,SPOT intensity,Binder
1,14,B1
2,34,B2
3,3,B3
4,11,B4
5,9,B5
6,37,B6

# Biological target: GST
# Assay: SPOT array
# Details: median of control spots 978
row,SPOT intensity,Binder
1,3,B1
2,6,B2
3,0,B3
4,2,B4
5,6,B5
6,1,B6

# Biological target: T15, Myo5, Q04439
# Assay: SPOT array
# Details: median of control spots 471
row,SPOT intensity,Binder
1,144,B1
2,1,B2
3,0,B3
4,119,B4
5,232,B5
6,15,B6

# Biological target: T16, Bud14, P27637
# Assay: SPOT array
# Details: median of control spots 956
row,SPOT intensity,Binder
1,9,B1
2,33,B2
3,8,B3
4,1,B4
5,6,B5
6,3,B6

# Biological target: T17, Boi1, P38041
# Assay: SPOT array
# Details: median of control spots 1162
row,SPOT intensity,Binder
1,2,B1
2,11,B2
3,0,B3
4,2,B4
5,3,B5
6,0,B6

# Biological target: Bem1-1, P29366
# Sequence (P29366 55-141): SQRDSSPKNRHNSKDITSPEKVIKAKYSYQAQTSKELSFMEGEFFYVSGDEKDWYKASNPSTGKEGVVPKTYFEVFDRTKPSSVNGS
# Assay: SPOT array
# Details: median of control spots 4282
row,SPOT intensity,Binder
1,1,B1
2,0,B2
3,0,B3
4,0,B4
5,0,B5
6,0,B6

# Biological target: T18, Sla1-3, P32790
# Assay: SPOT array
# Details: median of control spots 5475
row,SPOT intensity,Binder
1,4640,B1
2,36,B2
3,16,B3
4,3500,B4
5,2980,B5
6,155,B6

# Biological target: T19, Bzz1-1, P38822
# Assay: SPOT array
# Details: median of control spots 4446
row,SPOT intensity,Binder
1,1320,B1
2,0,B2
3,0,B3
4,650,B4
5,480,B5
6,435,B6

# Biological target: T20, Bzz1-2, P38822
# Assay: SPOT array
# Details: median of control spots 4538
row,SPOT intensity,Binder
1,4500,B1
2,46,B2
3,1,B3
4,3420,B4
5,2580,B5
6,590,B6

# Biological target: T21, Cyk3, Q07533
# Assay: SPOT array
# Details: median of control spots 1451
row,SPOT intensity,Binder
1,4,B1
2,2,B2
3,0,B3
4,1,B4
5,2,B5
6,0,B6

# Biological target: Myo3, P36006
# Assay: SPOT array
# Details: median of control spots 468
row,SPOT intensity,Binder
1,454,B1
2,24,B2
3,0,B3
4,342,B4
5,491,B5
6,233,B6
